Test results from PMC6886185.

Molecular target: eIF4A1 (UniProt P60842)
Test: fluorescence anisotropy
Details: 20 mM Hepes/KOH pH 7.5, 100 (mM) KCl, 1 mM MgCl2, 1 mM AMP-PNP, 1 mM TCEP, 0.1% DMSO, +/-50 uM silvestrol (10 uM in Fig 4a legend), 60 min, 25 C; numeric Kd of …

eIF4A1, sequence (P60842 whole entry): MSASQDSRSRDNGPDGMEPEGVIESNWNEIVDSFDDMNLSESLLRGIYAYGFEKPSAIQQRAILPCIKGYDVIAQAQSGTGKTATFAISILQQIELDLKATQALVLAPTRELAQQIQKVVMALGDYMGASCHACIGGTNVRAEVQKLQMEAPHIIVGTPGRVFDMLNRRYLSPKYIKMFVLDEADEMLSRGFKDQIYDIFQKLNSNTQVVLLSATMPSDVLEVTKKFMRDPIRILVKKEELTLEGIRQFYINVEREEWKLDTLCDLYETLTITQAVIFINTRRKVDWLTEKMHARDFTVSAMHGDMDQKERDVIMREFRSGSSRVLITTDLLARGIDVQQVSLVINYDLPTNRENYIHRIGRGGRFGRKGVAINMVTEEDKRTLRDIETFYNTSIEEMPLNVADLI

**Q.** How did the Kd turn out when AGAGAGAGAGAGAGAGAGAG [(AG)10 ssRNA] was run?
**A.** 0.0033 mM
